How the values were obtained:
[1] = target: T1, full length human IL-3Rα, wild type (human, UniProt P26951 19-378); test: flow cytometry, MFI normalised to WT (reference, set as 100%)
T1 construct: expressed in 293F cells; also called WT
T1 sequence: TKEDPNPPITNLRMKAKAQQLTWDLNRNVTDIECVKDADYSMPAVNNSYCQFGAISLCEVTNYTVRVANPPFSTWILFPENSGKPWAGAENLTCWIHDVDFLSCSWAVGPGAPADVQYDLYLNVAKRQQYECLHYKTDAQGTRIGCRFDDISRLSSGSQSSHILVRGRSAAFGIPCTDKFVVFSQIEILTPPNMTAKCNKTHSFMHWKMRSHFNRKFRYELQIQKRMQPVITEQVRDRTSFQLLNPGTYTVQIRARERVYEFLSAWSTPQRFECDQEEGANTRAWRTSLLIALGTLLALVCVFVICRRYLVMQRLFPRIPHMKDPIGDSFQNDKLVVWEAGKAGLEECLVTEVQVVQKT
Method: Median fluorescence intensity (MFI) of each antibody was determined for WT IL-3Rα and for each IL-3Rα mutant. The MFI of WT IL-3Rα staining for each antibody was set as 100% then the MFI of each mutant was normalized to a percent of WT staining.

[2] = target: human IL-3Rα E51Q/S59A double mutant, full length (human) (UniProt P26951); test: flow cytometry, MFI normalised to WT
[3] = target: human IL-3Rα E51Q/S59A/P88T triple mutant, full length (human) (UniProt P26951); test: flow cytometry, MFI normalised to WT
[4] = target: human IL-3Rα E51Q/P88T double mutant, full length (human) (UniProt P26951); test: flow cytometry, MFI normalised to WT
[5] = target: human IL-3Rα S59A/P88T double mutant, full length (human) (UniProt P26951); test: flow cytometry, MFI normalised to WT
human IL-3 = target: T2, human IL-3 (human, UniProt P08700 20-152); test: flow cytometry, 293F cells expressing mutant IL-3Rα and CD131
T2 sequence (looked up): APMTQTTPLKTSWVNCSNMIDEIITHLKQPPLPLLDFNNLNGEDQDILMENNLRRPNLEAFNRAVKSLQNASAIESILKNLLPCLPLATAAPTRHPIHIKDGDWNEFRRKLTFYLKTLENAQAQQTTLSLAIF
Method: STAT5 activity was measured by flow cytometry after intracellular staining with a phosphoSTAT5 antibody (pSTAT5).

anti-human IL-3Rα monoclonal antibody 9F5
MFI as percent of WT staining [1]: 100 % of WT MFI | MFI as percent of WT staining [2]: 87 % of WT MFI | MFI as percent of WT staining [3]: 32.7 % of WT MFI | MFI as percent of WT staining [4]: 70.1 % of WT MFI | MFI as percent of WT staining [5]: 95.6 % of WT MFI

B1: human IL-3Rα E51Q/S59A double mutant, full length (receptor)
chain: TKEDPNPPITNLRMKAKAQQLTWDLNRNVTDIQCVKDADYAMPAVNNSYCQFGAISLCEVTNYTVRVANPPFSTWILFPENSGKPWAGAENLTCWIHDVDFLSCSWAVGPGAPADVQYDLYLNVAKRQQYECLHYKTDAQGTRIGCRFDDISRLSSGSQSSHILVRGRSAAFGIPCTDKFVVFSQIEILTPPNMTAKCNKTHSFMHWKMRSHFNRKFRYELQIQKRMQPVITEQVRDRTSFQLLNPGTYTVQIRARERVYEFLSAWSTPQRFECDQEEGANTRAWRTSLLIALGTLLALVCVFVICRRYLVMQRLFPRIPHMKDPIGDSFQNDKLVVWEAGKAGLEECLVTEVQVVQKT
binding result (human IL-3): binds

B2: human IL-3Rα E51Q/S59A/P88T triple mutant, full length (receptor)
chain: TKEDPNPPITNLRMKAKAQQLTWDLNRNVTDIQCVKDADYAMPAVNNSYCQFGAISLCEVTNYTVRVANTPFSTWILFPENSGKPWAGAENLTCWIHDVDFLSCSWAVGPGAPADVQYDLYLNVAKRQQYECLHYKTDAQGTRIGCRFDDISRLSSGSQSSHILVRGRSAAFGIPCTDKFVVFSQIEILTPPNMTAKCNKTHSFMHWKMRSHFNRKFRYELQIQKRMQPVITEQVRDRTSFQLLNPGTYTVQIRARERVYEFLSAWSTPQRFECDQEEGANTRAWRTSLLIALGTLLALVCVFVICRRYLVMQRLFPRIPHMKDPIGDSFQNDKLVVWEAGKAGLEECLVTEVQVVQKT
binding result (human IL-3): binds

B3: human IL-3Rα E51Q/P88T double mutant, full length (receptor)
chain: TKEDPNPPITNLRMKAKAQQLTWDLNRNVTDIQCVKDADYSMPAVNNSYCQFGAISLCEVTNYTVRVANTPFSTWILFPENSGKPWAGAENLTCWIHDVDFLSCSWAVGPGAPADVQYDLYLNVAKRQQYECLHYKTDAQGTRIGCRFDDISRLSSGSQSSHILVRGRSAAFGIPCTDKFVVFSQIEILTPPNMTAKCNKTHSFMHWKMRSHFNRKFRYELQIQKRMQPVITEQVRDRTSFQLLNPGTYTVQIRARERVYEFLSAWSTPQRFECDQEEGANTRAWRTSLLIALGTLLALVCVFVICRRYLVMQRLFPRIPHMKDPIGDSFQNDKLVVWEAGKAGLEECLVTEVQVVQKT
binding result (human IL-3): binds

B4: human IL-3Rα S59A/P88T double mutant, full length (receptor)
chain: TKEDPNPPITNLRMKAKAQQLTWDLNRNVTDIECVKDADYAMPAVNNSYCQFGAISLCEVTNYTVRVANTPFSTWILFPENSGKPWAGAENLTCWIHDVDFLSCSWAVGPGAPADVQYDLYLNVAKRQQYECLHYKTDAQGTRIGCRFDDISRLSSGSQSSHILVRGRSAAFGIPCTDKFVVFSQIEILTPPNMTAKCNKTHSFMHWKMRSHFNRKFRYELQIQKRMQPVITEQVRDRTSFQLLNPGTYTVQIRARERVYEFLSAWSTPQRFECDQEEGANTRAWRTSLLIALGTLLALVCVFVICRRYLVMQRLFPRIPHMKDPIGDSFQNDKLVVWEAGKAGLEECLVTEVQVVQKT
binding result (human IL-3): binds
